We go through eleven molecules from patent publication US20170260266A1.

Values joined by “and” are separate entries in the source; they are usually repeats but may differ in a detail not shown here. Identical values can stand only once.

The target of assay [1] is full length (mature) cynomolgus monkey TSLP, recombinant (cynomolgus monkey). The experiment in a line: cell-based or functional assay.
For assay [2] the target is unchanged. The experiment in a line: ELISA RBA, geometric mean. In general terms: In an ELISA, binding on a coated surface is turned into a signal by an enzyme label.
Assay [3] has the same target. The experiment in a line: SPR, biotinylated TSLP on SA chip; all concentrations (footnote 2).
For assay [4] the target is unchanged. The experiment in a line: SPR, biotinylated TSLP on SA chip; value excluding 1000 nM concentration. A general note: Surface plasmon resonance follows binding to a sensor surface in real time, without labels.
For assay [5] the target is unchanged. In words: SPR, biotinylated TSLP on SA chip (Biacore 4000).
Assay [6] shares this target. The experiment in a line: RBA, geometric mean (n = 2).
Assay [7] has the same target. The experiment in a line: SPR with biotinylated TSLP; mean of two experiments.
Assay [8] concerns the target pre-existing human anti-VK (HAVK) antibodies. The experiment in a line: MSD bridging immunoassay: biotinylated and ruthenylated dAb cross-linked by antibodies in 5% serum of healthy subjects; rate over donors.

B1: DOM30h-440-57 (protein)
VL: DIQMTQSPSSLSASVGDRVTITCRASRPIRNWLDWYQQKPGKAPELLIWGASHLQSGVPSRFSGSGSGTDFTLTISSLQPEDFATYYCMQIGDDPVTFGQGTKVEIKR
The term IC50 denotes the point on the concentration scale where inhibition reaches its midpoint. What is called Kd is the constant that tells how readily two partners part at equilibrium. Consider B1, for which the pSTAT5 assay in SW756 cells, Geometric Mean IC50 in assay [1] was 1.6 nM. Moreover, in assay [2], the IC50 came out at 0.36 nM. Also, the Kd turned out to be 4.95 nM in assay [3] and 1.92 nM in assay [4].

B2: DOM30h-440-60 (protein)
VL: DIQMTQSPSSLSASVGDRVTITCRASRPIRNWLDWYQQKPGKAPKLLIWGASHLQSGVPSRFSGSGSGTDFTLTISSLQPEDFATYYCIQFGEDPVTFGQGTKVEIKR
Regarding B2, the pSTAT5 assay in SW756 cells, Geometric Mean IC50 in assay [1] amounted to 11.2 nM. In addition, the half-maximal inhibitory concentration (IC50) in assay [2] is 2.65 nM. Besides, the Kd in assay [5] was 7.81 nM.

B3: DOM30h-440-55 (protein)
VL: DIQMTQSPSSLSASVGDRVTITCRASRPIRNWLDWYQQKPGKAPKLLIWGASHLQSGVPSRFSGSGSGTDFTLTISSLQPEDFATYYCVQIGEDPVTFGQGTKVEIKR
Turning to B3, the pSTAT5 assay in SW756 cells, Geometric Mean IC50 in assay [1] was 3.12 nM. Besides, in assay [2], the IC50 was 0.55 nM. For the same molecule, in assay [5], the dissociation constant Kd was found to be 1.61 nM.

B4: DOM30h-440-63 (protein)
VL: DIQMTQSPSSLSASVGDRVTITCRASRPIRNWLDWYQQKPGKAPKLLIWGASHLQSGVPSRFSGSGSGTDFTLTISSLQPEDFATYYCMQIGSDPVTFGQGTKVEIKR
For the molecule B4, the pSTAT5 assay in SW756 cells, Geometric Mean IC50 in assay [1] was found to be 2.4 nM. In assay [2], the IC50 amounted to 0.83 nM. For the same molecule, the dissociation constant Kd in assay [5] was determined as 5.98 nM.

B5: DOM30h-440-54 (protein)
VL: DIQMTQSPSSLSASVGDRVTITCRASRPIRNWLDWYQQKPGKAPKLLIWGASHLQSGVPSRFSGSGSGTDFTLTISSLQPEDFATYYCWQLAFDPTTFGQGTKVEIKR
B5: in assay [1], the pSTAT5 assay in SW756 cells, Geometric Mean IC50 came out at 2.45 nM. Also, the IC50 in assay [2] was 0.67 nM. Also, in assay [5], the equilibrium dissociation constant (Kd) was determined as 6.24 nM.

B6: DOM30h-440-64 (protein)
VL: DIQMTQSPSSLSASVGDRVTITCRASRPIRNWLDWYQQKPGKAPKLLIWGASHLQSGVPSRFSGSGSGTDFTLTISSLQPEDFATYYCLQIGEDPVTFGQGTKVEIKR
On to B6, for which, in assay [1], the pSTAT5 assay in SW756 cells, Geometric Mean IC50 came out at 3.36 nM. For the same molecule, in assay [2], the IC50 was found to be 0.87 nM. For the same molecule, the Kd in assay [5] was 4.29 nM.

B7: DOM30h-440-65 (protein)
VL: DIQMTQSPSSLSASVGDRVTITCRASRPIRNWLDWYQQKPGKAPKLLIWGASHLQSGVPSRFSGSGSGTDFTLTISSLQPEDFATYYCMQIGEDPVTFGQGTKVEIKR
For B7, the pSTAT5 assay in SW756 cells, Geometric Mean IC50 in assay [1] turned out to be 3.8 nM. The half-maximal inhibitory concentration (IC50) in assay [2] was 0.29 nM. Also, in assay [5], the Kd worked out at 3.11 nM.

B8: DOM30h-440-58 (protein)
VL: DIQMTQSPSSLSASVGDRVTITCRASRPIRNWLDWYQQKPGKAPKLLIWGASHLQSGVPSRFSGSGSGTDFTLTISSLQPEDFATYYCLQIADDPVTFGQGTKVEIKR
In the case of B8, the pSTAT5 assay in SW756 cells, Geometric Mean IC50 in assay [1] is 3.43 nM. Further, the IC50 in assay [2] came out at 0.21 nM. Besides, the Kd in assay [5] came out at 3.42 nM.

B9: DOM30h-440-53 (protein)
VL: DIQMTQSPSSLSASVGDRVTITCRASRPIRNWLDWYQQKPGKAPKLLIWGASHLQSGVPSRFSGSGSGTDFTLTISSLQPEDFATYYCLQVGEDPVTFGQGTKVEIKR
In the case of B9, the pSTAT5 assay in SW756 cells, Geometric Mean IC50 in assay [1] worked out at 7.28 nM. Besides, the half-inhibitory concentration (IC50) in assay [2] stood at 1.3 nM. In assay [5], the dissociation constant Kd is 5.79 nM.

B10: DOM30h-440-56 (protein)
VL: DIQMTQSPSSLSASVGDRVTITCRASRPIRNWLDWYQQKPGKAPKLLIWGASHLQSGVPSRFSGSGSGTDFTLTVSSLQPEDFATYYCMQIGEDPVTFGQGTKVEIKR
Turning to B10, the pSTAT5 assay in SW756 cells, Geometric Mean IC50 in assay [1] was 4.74 nM. Also, the IC50 in assay [2] came out at 0.55 nM. Moreover, the Kd in assay [5] came to 2.97 nM.

B11: DOM30h-440-81/86 (protein)
VL: DIQMTQSPSSLSASVGDRVTITCRASRPIRNWLDWYQQKPGKAPKLLIWGASHLQSGVPSRFSGSGSGTDFTLTISSLQPEDFATYYCVQIGEDPVTFGQGTKVEIK
For orientation: koff means the rate constant with which the complex falls apart. As usually defined, the kon is the second-order rate constant of association. In the case of B11, the Inhibition of TSLP-induced pSTAT5 in SW756 cells, Geometric Mean IC50 (n = 5) in assay [1] was found to be 4 nM. Further, in assay [6], the IC50 was found to be 2.05 nM. In addition, in assay [7], the dissociation constant (Kd) was 0.511 nM and 0.51 nM; the dissociation rate constant (koff) was determined as 0.000774 s⁻¹; the on-rate constant (kon) was found to be 1.62e+06 M⁻¹ s⁻¹. The frequency of sera giving a positive signal (above the assay cutpoint) in assay [8] amounted to 6.7%.
